# Measurements taken from paper PMC2897852 (PLoS ONE, 2010).
# Biological target: T1, His-ClpX (M. tuberculosis ClpX, pRD21) (M. tuberculosis, UniProt P9WPB9 1-426)
# T1 construct: also called his-clpXTB; recombinant His-ClpX fusion protein
# Experiment: pull-down
# Conditions: both partners purified
# T1 sequence (P9WPB9 whole entry, the tested form may be a part): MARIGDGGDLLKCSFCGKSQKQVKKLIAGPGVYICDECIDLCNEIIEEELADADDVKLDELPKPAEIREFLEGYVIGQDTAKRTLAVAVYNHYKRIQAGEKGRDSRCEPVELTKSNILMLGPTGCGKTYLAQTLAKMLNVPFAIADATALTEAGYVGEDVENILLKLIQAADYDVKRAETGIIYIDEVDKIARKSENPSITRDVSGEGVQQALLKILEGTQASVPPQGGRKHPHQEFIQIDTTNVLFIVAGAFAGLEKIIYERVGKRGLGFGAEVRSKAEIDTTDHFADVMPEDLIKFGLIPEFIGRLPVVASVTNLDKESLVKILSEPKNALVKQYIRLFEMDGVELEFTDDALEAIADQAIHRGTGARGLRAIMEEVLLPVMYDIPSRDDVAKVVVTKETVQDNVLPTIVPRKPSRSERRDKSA
row,Binder,binding result
1,"tag-free FtsZ (M. tuberculosis FtsZ, polyhistidine tag cleaved with thrombin) (natural protein, also called FtsZTB) MTPPHNYLAVIKVVGIGGGGVNAVNRMIEQGLKGVEFIAINTDAQALLMSDADVKLDVGRDSTRGLGAGADPEVGRKAAEDAKDEIEELLRGADMVFVTAGEGGGTGTGGAPVVASIARKLGALTVGVVTRPFSFEGKRRSNQAENGIAALRESCDTLIVIPNDRLLQMGDAAVSLMDAFRSADEVLLNGVQGITDLITTPGLINVDFADVKGIMSGAGTALMGIGSARGEGRSLKAAEIAINSPLLEASMEGAQGVLMSIAGGSDLGLFEINEAASLVQDAAHPDANIIFGTVIDDSLGDEVRVTVIAAGFDVSGPGRKPVMGETGGAHRIESAKAGKLTSTLFEPVDAVSVPLHTNGATLSIGGDDDDVDVPPFMRR",binds
2,"FtsZ D210G, tag-free (pRR7) (natural protein) MTPPHNYLAVIKVVGIGGGGVNAVNRMIEQGLKGVEFIAINTDAQALLMSDADVKLDVGRDSTRGLGAGADPEVGRKAAEDAKDEIEELLRGADMVFVTAGEGGGTGTGGAPVVASIARKLGALTVGVVTRPFSFEGKRRSNQAENGIAALRESCDTLIVIPNDRLLQMGDAAVSLMDAFRSADEVLLNGVQGITDLITTPGLINVDFAGVKGIMSGAGTALMGIGSARGEGRSLKAAEIAINSPLLEASMEGAQGVLMSIAGGSDLGLFEINEAASLVQDAAHPDANIIFGTVIDDSLGDEVRVTVIAAGFDVSGPGRKPVMGETGGAHRIESAKAGKLTSTLFEPVDAVSVPLHTNGATLSIGGDDDDVDVPPFMRR",binds
3,"FtsZ G103S, tag-free (pRR3) (natural protein) MTPPHNYLAVIKVVGIGGGGVNAVNRMIEQGLKGVEFIAINTDAQALLMSDADVKLDVGRDSTRGLGAGADPEVGRKAAEDAKDEIEELLRGADMVFVTAGESGGTGTGGAPVVASIARKLGALTVGVVTRPFSFEGKRRSNQAENGIAALRESCDTLIVIPNDRLLQMGDAAVSLMDAFRSADEVLLNGVQGITDLITTPGLINVDFADVKGIMSGAGTALMGIGSARGEGRSLKAAEIAINSPLLEASMEGAQGVLMSIAGGSDLGLFEINEAASLVQDAAHPDANIIFGTVIDDSLGDEVRVTVIAAGFDVSGPGRKPVMGETGGAHRIESAKAGKLTSTLFEPVDAVSVPLHTNGATLSIGGDDDDVDVPPFMRR",binds
